Common to all, as to test: FACS binding to CHO cells
(In flow cytometry, cells or beads pass a laser one at a time.)

Experiment [1] has as its target T1, cynomolgus LRRC15 (cynomolgus, UniProt G7NYR2 22-581).
T1 chain: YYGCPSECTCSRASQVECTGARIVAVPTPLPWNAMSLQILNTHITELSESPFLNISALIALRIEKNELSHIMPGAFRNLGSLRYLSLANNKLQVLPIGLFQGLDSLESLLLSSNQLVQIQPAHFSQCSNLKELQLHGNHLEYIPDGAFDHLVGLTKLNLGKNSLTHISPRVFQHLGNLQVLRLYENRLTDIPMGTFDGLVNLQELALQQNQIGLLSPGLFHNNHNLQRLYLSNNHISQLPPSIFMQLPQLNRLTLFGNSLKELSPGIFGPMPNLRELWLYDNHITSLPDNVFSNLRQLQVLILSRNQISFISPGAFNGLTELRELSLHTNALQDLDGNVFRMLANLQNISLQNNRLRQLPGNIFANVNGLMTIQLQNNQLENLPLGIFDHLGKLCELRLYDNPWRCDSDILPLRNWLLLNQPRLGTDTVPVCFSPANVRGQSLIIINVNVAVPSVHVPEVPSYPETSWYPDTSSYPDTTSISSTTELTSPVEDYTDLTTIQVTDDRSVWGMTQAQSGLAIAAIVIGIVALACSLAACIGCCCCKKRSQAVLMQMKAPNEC

In experiment [2] the target is T2, human LRRC15 (leucine-rich repeat containing protein 15) (human, UniProt Q8TF66 22-581).
T2 chain: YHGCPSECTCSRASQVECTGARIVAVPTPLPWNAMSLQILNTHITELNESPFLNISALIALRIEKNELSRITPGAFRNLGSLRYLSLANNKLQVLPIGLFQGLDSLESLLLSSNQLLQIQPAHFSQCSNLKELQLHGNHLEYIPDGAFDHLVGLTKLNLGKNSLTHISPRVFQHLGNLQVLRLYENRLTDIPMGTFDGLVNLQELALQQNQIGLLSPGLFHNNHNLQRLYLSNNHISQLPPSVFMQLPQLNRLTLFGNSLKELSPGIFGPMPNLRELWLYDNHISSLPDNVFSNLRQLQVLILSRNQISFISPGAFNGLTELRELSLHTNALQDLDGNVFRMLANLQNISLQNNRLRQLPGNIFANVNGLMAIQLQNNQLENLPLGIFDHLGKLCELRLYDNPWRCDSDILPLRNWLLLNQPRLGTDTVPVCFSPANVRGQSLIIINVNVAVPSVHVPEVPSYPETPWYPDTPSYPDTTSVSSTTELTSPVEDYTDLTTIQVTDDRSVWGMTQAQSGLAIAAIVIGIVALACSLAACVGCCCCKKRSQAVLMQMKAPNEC

Experiment [3] addresses T2, human LRRC15 (leucine-rich repeat …).
In experiment [4] the target is T1, cynomolgus LRRC15.

Like-named read-outs stand apart in the source and are kept apart here.

B1: L15-03 (antibody, V domains shown)
VH: QVQLVQSGAEVKKPGSSVKVSCKASGGTFSSYTISWVRQAPGQGLEWMGGIIPMFGTANYAQKFQGRVTITADESTSTAYMELSSLRSEDTAVYYCARGVALLATDFDYWGQGTLVTVSS
VL: QSALTQPASVSGSPGQSITISCTGTSSDVGGYNYVSWYQQHPGKAPKLMIYEVSNRPSGVSNRFSGSKSGNTASLTISGLQAEDEADYYCQSWTHDNSVVFGGGTKLTVL
Consider B1, for which the EC50 came out at 165 pM in experiment [1] and 286 pM in experiment [2].

B2: L15-06 (antibody, V domains shown)
VH: EVQLLESGGGLVQPGGSLRLSCAASGFTFSSYYMSWVRQAPGKGLEWVADISVSGSYTNYADSVKGRFTISRDNSKNTLYLQMNSLRAEDTAVYYCARIGSYRSFFSTDDGDSLDYWGQGTLVTVSS
VL: not shown
For the molecule B2, the EC50 stood at 239 pM in experiment [1] and 376 pM in experiment [2].

B3: L15-08 (antibody, V domains shown)
VH: QVQLVESGGGLVKPGGSLRLSCAASGFTFSDYYMSWIRQAPGKGLEWVSDISVSSSYTNYADSVKGRFTISRDNAKNSLYLQMNSLRAEDTAVYYCARLGGYRSFFSTDDGDSLDYWGQGTLVTVSS
VL: not shown
Consider B3, for which the EC50 in experiment [1] is 190 pM; in experiment [2], 633 pM.

B4: 153-L06C (bispecific antibody)
chain 1: not shown
chain 2: EPKSCDKTHTCPPCPAPEFEGGPSVFLFPPKPKDTLMISRTPEVTCVVVDVSHEDPEVKFNWYVDGVEVHNAKTKPREEQYNSTYRVVSVLTVLHQDWLNGKEYKCKVSNKALPASIEKTISKAKGQPREPQVCTLPPSRDELTKNQVSLTCLVEGFYPSDIAVEWESNGQPENNYKTTPPVLDSDGSFFLYSDLTVDKSRWQQGNVFSCSVMHEALHNHYTQESLSLSPGK
Take B4: the EC50 was 1150 pM in experiment [3] and 1480 pM in experiment [4].

B5: L15-07 (antibody, V domains shown)
VH: QVQLVQSGAEVKKPGSSVKVSCKASGGTFSTYAISWVRQAPGQGLEWMGGITPMFGTPNYAQKFQGRVTITADESTSTAYMELSSLRSEDTAVYYCARGDWYDYHFDYWGQGTLVTVSS
VL: QSALTQPASVSGSPGQSITISCTGTSSDVGGYNYVSWYQQHPGKAPKLMIYEVSNRPSGVSNRFSGSKSGNTASLTISGLQAEDEADYYCQSYANRDNFVVFGGGTKLTVL
As for B5, the EC50 was found to be 277 pM in experiment [1] and 259 pM in experiment [2].

B6: 315-L06C08 (bispecific antibody)
chain: not shown
heavy: QVQLVESGGGLVKPGGSLRLSCAASGFTFSDYYMSWIRQAPGKGLEWVSDISVSSSYTNYADSVKGRFTISRDNAKNSLYLQMNSLRAEDTAVYYCARLGGYRSFFSTDDGDSLDYWGQGTLVTVSSASTKGPSVFPLAPSSKSTSGGTAALGCLVKDYFPEPVTVSWNSGALTSGVHTFPAVLQSSGLYSLSSVVTVPSSSLGTQTYICNVNHKPSNTKVDKRVEPKSCDKTHTCPPCPAPEFEGGPSVFLFPPKPKDTLMISRTPEVTCVVVDVSHEDPEVKFNWYVDGVEVHNAKTKPREEQYNSTYRVVSVLTVLHQDWLNGKEYKCKVSNKALPASIEKTISKAKGQPREPQVCTLPPSRDELTKNQVSLTCLVEGFYPSDIAVEWESNGQPENNYKTTPPVLDSDGSFFLYSDLTVDKSRWQQGNVFSCSVMHEALHNHYTQESLSLSPGK
light: not shown
For B6, the EC50 in experiment [3] stood at 488 pM; in experiment [4], 627 pM.

For orientation: EC50 means the midpoint of the concentration-response curve.

Values taken from patent publication US20250051444A1 (published 2025).
